The record followed here is paper PMC9113379 (Cell & Bioscience, 2022).

The labels stand for the following.
B1: R3P2-A2 mAb (antibody, V domains shown)
VH: QVQLVQSGGGLIQPGGSLRLSCAASGVTVSSNYMSWVRQAPGRGLEWVSLIYPGGSTYYADSVKGRFTISRDNSRNTLYLQMNSLRAEDTAVYYCARDLSEKGGMDVWGQGTMVTVSS
VL: EIVMTQSPSVLPLFPGESGSLSCRASQNVGDFLAWYQHKPGQAPKLLIYGATNRPTGIPDRFSGTGSGTDFTLTISRMEPEDFAVYFCQQYGTSPPITFGPGTKVDIK
B2: R3P1-E4 mAb (antibody, V domains shown)
VH: QVQLVQSGGGLIQPGGSLRLSCAASGVTVSSNYMSWVRQAPGRGLEWVSLIYPGGSTYYADSVKGRFTISRDNSRNTLYLQMNSLRAEDTAVYYCARDLSEKGGMDVWGQGTTVTVSS
VL: DIVMTQSPSSLSASVGDRVTITCRASQGISSYLAWYQQKPGKAPKLLIYAASTLQSGVPSRFSGSGSGTDFTLTISSLQPEDFATYYCQQLNSYPRFGPGTKVEIK
B3: R3P2-G1 mAb (antibody, V domains shown)
VH: QVQLVQSGGGLIQPGGSLRLSCAASGVTVSSNYMSWVRQAPGRGLEWVSLIYPGGSTYYADSVKGRFTISRDNSRNTLYLQMNSLRAEDTAVYYCARDLSEKGGMDVWGQGTTVTVSS
VL: QAVLTQPPSVSVAPGKTARITCGGNHIGSKSVNWYQQKSGQAPVLVIYSDSDRPSGIPARFSGSNSGDTATLTISRVEAGDEADYYCQVWDNRSDHWVFGGGTQLTVL
B4: R3P2-B5 mAb (antibody, V domains shown)
VH: QVQLVQSGGGLIQPGGSLRLSCAASGVTVSSNYMSWVRQAPGRGLEWVSLIYPGGSTYYADSVKGRFTISRDNSRNTLYLQMNSLRAEDTAVYYCARDLSEKGGMDVWGQGTLVTVSS
VL: EIVMTQSPGTLSLSPGERVTLSCRTSQSVSRFFSWYQQKPGQAPRLLIHTASTRATDIPDRFSASGSGTDFTLTISRLEPEDSAMYYCQHYGASPYTFGQGTKVDIK
B5: REGN10933 mAb (antibody, V domains shown)
VH: QVQLVESGGGLVKPGGSLRLSCAASGFTFSDYYMSWIRQAPGKGLEWVSYITYSGSTIYYADSVKGRFTISRDNAKSSLYLQMNSLRAEDTAVYYCARDRGTTMVPFDYWGQGTLVTVSS
VL: DIQMTQSPSSLSASVGDRVTITCQASQDITNYLNWYQQKPGKAPKLLIYAASNLETGVPSRFSGSGSGTDFTFTISGLQPEDIATYYCQQYDNLPLTFGGGTKVEIK
B6: CB6 mAb (antibody, V domains shown)
VH: EVQLVESGGGLVQPGGSLRLSCAASGFTVSSNYMSWVRQAPGKGLEWVSVIYSGGSTFYADSVKGRFTISRDNSMNTLFLQMNSLRAEDTAVYYCARVLPMYGDYLDYWGQGTLVTVSS
VL: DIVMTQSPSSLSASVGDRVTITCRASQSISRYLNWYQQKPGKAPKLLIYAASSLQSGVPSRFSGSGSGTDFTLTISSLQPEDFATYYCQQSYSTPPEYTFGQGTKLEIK

The first test deals with T1, SARS-CoV-2 S protein RBD domain (wild type) (SARS-CoV-2, UniProt P0DTC2). As to the kind of experiment: SPR. Particulars: both partners purified.
In the case of B1, the dissociation constant Kd came to 2.32 nM. On the same count and under the same terms, under B2 stands 0.82 nM.

The target of the next test is T1, SARS-CoV-2 S protein RBD domain (wild …). As to the kind of experiment: ELISA. The following applies: both partners purified. (In general: In an ELISA, binding on a coated surface is turned into a signal by an enzyme label.)
On to B3, for which the binding result is listed as “binds”. B4: the binding result is “binds”. The same measure, in the same setting: under B5 stands “binds”; under B6, “binds”.

One may read the Kd as a measure of binding affinity in units of concentration. Read a low Kd as tighter binding.
